From article PMC5025174 (PLoS ONE, 2016)

Tests used:
human IGF1R ectodomain = molecular target: T1, human IGF1R ectodomain (Homo sapiens, UniProt P08069); assay: SPR; SEC-purified VHH monomers, 0.1-10 nM, over human IGF1R ectodomain amine-coupled to a CM5 chip (476 RU); 25°C, HBS-EP pH 7.4; 1:1 binding model; details: both partners purified
T1 construct: human IGF1R, ectodomain; source: bought: R&D Systems

human ICAM-1 ectodomain = molecular target: T2, human ICAM-1 ectodomain (Homo sapiens, UniProt P05362); assay: SPR; SEC-purified VHH monomers, 0.5-200 nM, over human ICAM-1 ectodomain amine-coupled to a CM5 chip (1348 RU); 25°C, HBS-EP pH 7.4; 1:1 binding model; details: both partners purified
T2 construct: human ICAM-1, ectodomain; source: bought: R&D Systems
T2 sequence (P05362 28-480): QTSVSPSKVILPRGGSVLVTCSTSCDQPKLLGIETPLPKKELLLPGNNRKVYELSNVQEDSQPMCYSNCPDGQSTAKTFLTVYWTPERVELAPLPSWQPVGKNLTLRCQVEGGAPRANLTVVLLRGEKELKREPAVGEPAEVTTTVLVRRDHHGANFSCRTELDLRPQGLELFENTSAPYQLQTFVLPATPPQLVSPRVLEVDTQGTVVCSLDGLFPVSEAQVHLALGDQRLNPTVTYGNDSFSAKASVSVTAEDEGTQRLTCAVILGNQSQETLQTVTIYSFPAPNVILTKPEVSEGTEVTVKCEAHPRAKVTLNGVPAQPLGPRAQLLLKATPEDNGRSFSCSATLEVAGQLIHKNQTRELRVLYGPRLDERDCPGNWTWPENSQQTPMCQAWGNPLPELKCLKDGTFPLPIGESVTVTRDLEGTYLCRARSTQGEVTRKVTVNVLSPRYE

T1 sequence (P08069 741-935): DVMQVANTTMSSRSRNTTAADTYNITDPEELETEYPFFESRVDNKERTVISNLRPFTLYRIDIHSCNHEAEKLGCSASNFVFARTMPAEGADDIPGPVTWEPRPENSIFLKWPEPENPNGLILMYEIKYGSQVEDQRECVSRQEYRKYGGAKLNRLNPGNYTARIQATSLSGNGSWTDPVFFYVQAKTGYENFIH

| Binder | Kd (human IGF1R ectodomain) [nM] | Kd (human ICAM-1 ectodomain) [nM] |
| --- | --- | --- |
| IGF1R-4 VHH, wild-type (VHH, anti-human IGF1R; bears Val59, Asp65 (Kabat); source: E. coli TG1, periplasm (osmotic shock), purified (IMAC)) VHH: QVKLEESGGGLVQAGGSLRLSCEVSGGTVSPTAMGWFRQAPGKEREFVGHITWSRGTTRVASSVKDRFTISRDSAKNTVYLQMNSLKSEDTAVYYCAASTFLRILPEESAYTYWGQGTQVTVSS | 0.3 | – |
| ICAM11-4 VHH, wild-type (VHH, anti-human ICAM-1; bears Ile57 (Kabat); source: E. coli TG1, periplasm (osmotic shock), purified (IMAC)) VHH: QVQLVESGGGLVQPGGSLRLSCAASGSISSLYVMGWYRQAPGKQRELVADITSSGSIYYVDSLKGRFTISRDNARSTVYLQMNSLEPEDTAVYYCMAHVRQDSGSEYLTYWGQGTQVTVSS | – | 0.9 |
| ICAM11-4 VHH I57T (SpA-engineered) (VHH, as the VHH of m6 with the stated change; numbers count on: Kabat numbering; also called ICAM11-4 I57T; SpA-engineered ICAM11-4; source: E. coli TG1, periplasm (osmotic shock), purified (IMAC); periplasmic extract for protein A chromatography) VHH: QVQLVESGGGLVQPGGSLRLSCAASGSISSLYVMGWYRQAPGKQRELVADITSSGSTYYVDSLKGRFTISRDNARSTVYLQMNSLEPEDTAVYYCMAHVRQDSGSEYLTYWGQGTQVTVSS | – | 1.3 |
| ICAM34-1 VHH, wild-type (VHH, anti-human ICAM-1; bears Ala57, Pro75, Gly82b (Kabat); source: E. coli TG1, periplasm (osmotic shock), purified (IMAC)) VHH: QVKLEESGGGLVQPGGSLRLSCAASGSIFSINDMGWYRQAPGKQRELVARITRDGSAAYEDSVKGRFTISRDNAPNTVFLQMNGLKPEDTAVYYCNAEIITTQTLGRMLGEYWGQGTQVTVSS | – | 32 |
| IGF1R-4 VHH, humanized (VHH, as the VHH of m18 with FRs reverted to human IGHV3 germline; also called humanized IGF1R-4; source: E. coli TG1, periplasm (osmotic shock), purified (IMAC); periplasmic extract for protein A chromatography) VHH: QVQLVESGGGLVQPGGSLRLSCAVSGGTVSPTAMGWFRQAPGKGLEFVGHITWSRGTTRYASSVKGRFTISRDNSKNTVYLQMNSLRAEDTAVYYCAASTFLRILPEESAYTYWGQGTLVTVSS | 0.4 | – |
| IGF1R-5 VHH, wild-type (VHH, anti-human IGF1R; bears Ala57, Asn82b (Kabat); source: E. coli TG1, periplasm (osmotic shock), purified (IMAC)) VHH: QVKLEESGGGLVQAGGSLRLSCAASGRTIDNYAMAWSRQAPGKDREFVATIDWGDGGARYANSVKGRFTISRDNAKGTMYLQMNNLEPEDTAVYSCAMARQSRVNLDVARYDYWGQGTQVTVSS | 0.8 | – |
| IGF1R-5 VHH, humanized (VHH, as the VHH of m23 with FRs reverted to human IGHV3 germline; also called humanized IGF1R-5; source: E. coli TG1, periplasm (osmotic shock), purified (IMAC); periplasmic extract for protein A chromatography) VHH: QVQLVESGGGLVQPGGSLRLSCAASGRTIDNYAMAWSRQAPGKGLEFVATIDWGDGGTRYANSVKGRFTISRDNSKNTMYLQMNSLRAEDTAVYYCAMARQSRVNLDVARYDYWGQGTLVTVSS | 0.9 | – |
